In patent US9879094B2, “Nucleic acid molecules encoding for BACE1 antibodies” (Genentech, Inc., priority 2010, dated 2018):
Several values for one entry are separate records, joined by “and”; a condition that tells them apart may be missing. Identical values can stand only once.

Legend:
human BACE1 ECD = target: T1, human BACE1 ECD (Homo sapiens, UniProt P56817); experiment: BIAcore SPR binding kinetics, human BACE1
T1 construct: human BACE1 ECD or murine BACE1 ECD (amino acids 1-457) was injected in PBT buffer
Experimental: The binding kinetics of YW412.8.31 was assessed. Briefly, binding affinities of anti-BACE1 IgGs were measured by surface plasmon resonance (SPR) using a BIAcore™-3000 instrument. YW412.8.31 anti-BACE1 human IgG was captured by mouse anti-human Fc antibody (GE Healthcare, cat# BR-1008-39) coated on CM5 biosensor chips to achieve approximately 100 response units (RU). For kinetics measurements, two-fold serial dilutions (0.98 nM to 125 nM) of human BACE1 ECD or murine BACE1 ECD (amino acids 1-457) was injected in PBT buffer (PBS with 0.05% Tween 20) at 25° C. with a flow rate of 30 μl/min. Association rates (kon) and dissociation rates (koff) were calculated using a simple one-to-one Langmuir binding model (BIAcore™ Evaluation Software version 3.2). The equilibrium dissociation constant (KD) was calculated as the ratio koff/kon.

[1] = test system: E13.5 dorsal root ganglia neurons; experiment: Aβ40 production in DRG neurons; format: cell-based, mouse; settings: highest concentrations
Experimental: Similar studies were also performed in dorsal root ganglia, cortical neurons and hippocampal neurons isolated from mice. Briefly, dissociated neuronal cultures were prepared from E13.5 dorsal root ganglia (DRG), E16.5 cortical neurons and E16.5 hippocampal neurons. Neurons were grown for five days in vitro. Fresh media containing YW412.8.31 anti-BACE antibody or control IgG1 was incubated with the neurons for 24 hours. Media was harvested and assayed for the presence of Aβ40 using the MSD® Rodent/Human (4G8) A1340 Ultrasensitive kit according to the Manufacturer's instructions. Aβ40 values were normalized for cell viability, as determined using the CellTiter-Glo Luminescent Cell Viability Assay (Promega). The experiment was performed at least three times, and each point was repeated in duplicate. Data was plotted using a four-parameter non-linear regression curve-fitting program (Kaleidagraph, Synergy Software).

[2] = test system: Aβ1-40 in Cynomolgus monkeys; experiment: Cynomolgus monkeys, single IV dose, Aβ1-40 in plasma and CSF; format: in vivo, Cynomolgus monkey; settings: 30 mg/kg IV
Experimental: Cynomolgus monkeys were dosed with control IgG or YW412.8.31 anti-BACE1 antibody (30 mg/kg) by IV delivery. Plasma and CSF were sampled up to 7 days prior to dosing to set mean baseline Aβ1-40 levels in each in individual animal, and then at various times after dosing. Total anti-BACE1 or control antibody concentrations in monkey serum and CSF samples were measured using monkey-adsorbed goat anti-human IgG polyclonal antibody (Bethyl, Montgomery, Tex.) as both coat and detection (FIG. 20). Free anti-BACE1 antibody concentrations in monkeys were determined using BACE1 ECD as coat and the monkey-adsorbed goat anti-human IgG antibody (Bethyl) for detection.
Aβ1-40 levels in plasma and CSF from Cynomolgus monkeys tested was also determined. Briefly, the concentrations of total cyno Aβ1-40 in plasma were determined using MSD MA6000 Human (6E10) Abeta Kit (Cat#K111BVE-2, Meso Scale Diagnostics) according to the Manufacturer's instructions. The capture antibody, specific for the C terminus of Aβ1-40, was pre-coated on the plates, and Sulfo-Tag anti-Aβ monoclonal antibody 6E10 was used for detection. The assay had lower limit of quantification values of 49.4 pg/ml in plasma. The concentrations of total cyno Aβ1-40 in CSF were determined using a sandwich ELISA. […]

[3] = Antibody concentration in brain of hAPP transgenic mice; format: in vivo, mouse
Experimental: Briefly, 5-month old human APP-expressing mice were treated with 30 mg/kg or 100 mg/kg YW412.8.31 antibody or vehicle by intra-peritoneal injection every four days for a total of three doses (i.e., at days 1, 5, and 9). Animals were euthanized two hours post the final dose. Serum, plasma, and brains were harvested and processed. Plasma, cortex and hippocampus were analyzed for levels of soluble Aβ1-40 and Aβ1-42 using an Amyloid beta (Aβ) ELISA test kit per manufacture's instructions (The Genetics Company). Pharmacokinetic analysis was performed on serum and brain homogenates.
Similar experiments were also performed in which YW412.8.31 anti-BACE1 antibody was delivered systemically or directly into hAPP transgenic mice brains by continuous ICV infusion. For ICV delivery, antibody was delivered continuously for 7 days via an Alzet osmotic minipump (model 2001) implanted unilaterally. The amount of YW412.8.31 antibody delivered was 0.041 mg/day (low dose) or 0.41 mg/day (high dose); 0.33 mg/day Control IgG was delivered to the control group. At euthanasia, plasma, cortex, and hippocampus were harvested and analyzed for levels of soluble Aβ1-40 and Aβ1-42 by ELISA (The Genetics Company) following manufacturer's instructions.
Total anti-BACE1 antibody concentrations in mouse serum and brain samples were measured as follows. Antibody concentrations in mouse serum and brain samples were measured using an enzyme-linked immunosorbent assay (ELISA). NUNC 384 well Maxisorp immunoplates (Neptune, N.J.) were coated with F(ab′)2 fragment of donkey anti-human IgG, Fc fragment specific polyclonal antibody (Jackson ImmunoResearch, West Grove, Pa.) overnight at 4° C. Plates were blocked with phosphate-buffered saline (PBS) containing 0.5% bovine serum albumin (BSA) for 1 hour at room temperature the next day. Each antibody (Control IgG and anti-BACE1) was used as a standard to quantify the respective antibody concentrations. After washing plates with PBS containing 0.05% Tween 20 using a microplate washer (Bio-Tek Instruments, Inc., Winooski, Vt.), standards and samples diluted in PBS containing 0.5% BSA, 0.35 M NaCl, 0.25% CHAPS, 5 mM EDTA, 0.05% Tween 20 and 15 ppm Proclin were incubated on plates for 2 hours at room temperature with mild agitation. Bound antibody was detected with horseradish peroxidase conjugated F(ab′)2 goat anti-human IgG, Fc specific polyclonal antibody (Jackson ImmunoResearch). Finally, plates were developed using the substrate 3,3′,5,5′-tetramethyl benzidine (TMB) (KPL, Inc., Gaithersburg, Md.). Absorbance was measured at a wavelength of 450 nm with a reference of 630 nm on a Multiskan Ascent reader (Thermo Scientific, Hudson, N.H.). Concentrations were determined from the standard curve using a four-parameter non-linear regression program.

T1 sequence (P56817 22-457): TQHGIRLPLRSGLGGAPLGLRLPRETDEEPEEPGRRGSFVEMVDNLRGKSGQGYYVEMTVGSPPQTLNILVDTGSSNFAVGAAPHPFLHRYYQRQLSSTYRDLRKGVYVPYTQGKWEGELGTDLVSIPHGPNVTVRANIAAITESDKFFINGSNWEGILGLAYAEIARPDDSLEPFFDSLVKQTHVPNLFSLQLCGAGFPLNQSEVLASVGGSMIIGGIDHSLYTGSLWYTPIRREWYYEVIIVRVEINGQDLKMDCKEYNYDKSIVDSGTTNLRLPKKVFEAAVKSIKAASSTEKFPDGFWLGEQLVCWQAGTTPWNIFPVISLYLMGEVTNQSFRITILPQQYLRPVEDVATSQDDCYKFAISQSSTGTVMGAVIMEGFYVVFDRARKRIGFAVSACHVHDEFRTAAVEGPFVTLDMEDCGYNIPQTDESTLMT

B1: YW412.8.31: affinity matured form of YW412.8 anti-BACE1 antibody (antibody, V domains shown)
VH: EVQLVESGGGLVQPGGSLRLSCAASGFTFLGYGIHWVRQAPGKGLEWVGWISPAGGSTDYADSVKGRFTISADTSKNTAYLQMNSLRAEDTAVYYCARGPFSPWVMDYWGQGTLVTVSS
VL: DIQMTQSPSSLSASVGDRVTITCRASQDVSTAVAWYQQKPGKAPKLLIYSASFLYSGVPSRFSGSGSGTDFTLTISSLQPEDFATYYCQQFPTYLPTFGQGTKVEIK
Binding to BACE1 (human BACE1 ECD; at both pH 7.0 and 5.0): confirmed
KON (human BACE1 ECD; human BACE1, IgG captured, pH 7.0, 25° C.): 1.1 × 10^5 M^−1S^−1 and 1.05 × 10^5 M^−1S^−1
reduction in Aβ40 production [1]: ~50%
reduction of CSF Aβ1-40 ([2]; 1 and 3 days following dosing): up to 50%
reduction of plasma Aβ1-40 from baseline ([2]; sustained over 7 days): ~50%
ANTIBODY CONCENTRATION IN BRAIN ([3]; systemic delivery 30 mg/kg): 0.7 μG/G
antibody concentration in brain ([3]; systemic delivery 30 mg/kg): 4.8 ± 3.6 nM and 4.8 nM
ANTIBODY CONCENTRATION IN BRAIN ([3]; systemic delivery 100 mg/kg): 2.1 μG/G
antibody concentration in brain ([3]; systemic delivery 100 mg/kg): 14.0 ± 9.3 nM and 14 nM
